For this test, the target named is CD18 (Integrin beta-2) (human) (UniProt P05107). As to the kind of experiment: cell-based or functional assay.
UniProt P05107, sequence (P05107 23-769): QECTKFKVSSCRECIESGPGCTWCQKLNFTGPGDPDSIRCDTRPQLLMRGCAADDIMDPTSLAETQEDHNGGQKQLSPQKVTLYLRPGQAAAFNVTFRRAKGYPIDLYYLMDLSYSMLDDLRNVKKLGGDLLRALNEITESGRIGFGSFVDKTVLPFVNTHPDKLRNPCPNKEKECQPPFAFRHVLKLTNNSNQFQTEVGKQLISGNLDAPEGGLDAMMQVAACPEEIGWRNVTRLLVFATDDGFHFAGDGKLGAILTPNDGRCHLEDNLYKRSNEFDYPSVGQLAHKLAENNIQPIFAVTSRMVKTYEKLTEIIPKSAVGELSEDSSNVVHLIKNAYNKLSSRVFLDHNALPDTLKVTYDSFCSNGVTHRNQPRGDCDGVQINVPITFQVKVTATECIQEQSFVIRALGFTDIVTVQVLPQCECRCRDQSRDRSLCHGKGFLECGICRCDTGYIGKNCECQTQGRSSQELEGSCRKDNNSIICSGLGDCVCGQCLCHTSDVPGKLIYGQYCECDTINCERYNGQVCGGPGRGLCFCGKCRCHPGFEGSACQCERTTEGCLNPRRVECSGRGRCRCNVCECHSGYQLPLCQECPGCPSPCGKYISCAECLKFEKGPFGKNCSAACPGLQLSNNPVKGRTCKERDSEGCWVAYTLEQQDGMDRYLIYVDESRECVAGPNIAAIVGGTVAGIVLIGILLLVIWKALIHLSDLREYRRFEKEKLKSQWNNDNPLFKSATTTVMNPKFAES

anti-CD18 antibody molecule TS 1/18: the 3H-thymidine uptake (cpm), PBMC + HUVEC + PSMA×CD3, off target activation (FIG. 3A; control about 30000 cpm) is under 10000 cpm.

(Values after patent US20170362325A1.)
